This assay deals with human FcγRIIb on Huvec-2b cells (Homo sapiens (Human)., UniProt P31994). The assay can be described thus: flow cytometry on cells. (In general: Flow cytometry measures light scatter and fluorescence of single cells or particles in a stream.)
human FcγRIIb on Huvec-2b cells, sequence (P31994 43-310): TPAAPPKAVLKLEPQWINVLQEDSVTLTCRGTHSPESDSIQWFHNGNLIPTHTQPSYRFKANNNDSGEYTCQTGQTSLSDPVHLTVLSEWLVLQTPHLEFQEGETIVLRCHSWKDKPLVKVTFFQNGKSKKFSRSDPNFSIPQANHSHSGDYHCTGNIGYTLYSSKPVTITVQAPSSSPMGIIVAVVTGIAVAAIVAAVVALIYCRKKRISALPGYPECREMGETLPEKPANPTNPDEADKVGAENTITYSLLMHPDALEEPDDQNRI

B1: SK4-Fc (Fc fusion, human)
VH: QVQLVETGGGVVQVGRSLRLSCAASGFTFSHYGMHWVRQAPGKGLEWVSGISWNSDRRGYADSVKGRFTISRDNTKNSLYLQMNSLRAEDTAVYYCVREFYDAFDIWGQGTMVTVSS
VL: DIQMTQSPSSLPAYVGDRVTISCRASQSIRTYLNWYRQKVGKAPELLVYDASSLHKGVPSRFSASGSGTDFSLTISSLQPEDFATYYCQQSFSSPRTFGQGTKVEIK
Take B1: the binding result is listed as “binds”.

B2: SK3-Fc (Fc fusion, human)
VH: QVLVETGGGVVQPGRSLRLSCAASGFTFSSYGMHWVRQAPGKGLEWVAVISYDGDDKDYADSVKGRFTISRDNADSSVFLQMNSLRAEDTALYYCAREGQWVGGALDIWGQGTMVTVSS
VL: DIVMTQSPSTLSASLGDTVTITCRASQSINGWLAWYQQKPGKAPNLLIYQAPNLESGVPSRFSGSGSGTEFTLTINGLQPDDFATYYCQKYDNAPHTFGQGTKVEIK
B2: the binding result is reported as “binds”.

The record behind these values is publication PMC12804944 (Nature Communications, 2025).
